# Test results: patent EP4541814A1 (Cytiva BioProcess R&D AB, dated 2025)
# Residue numbers refer to the chain shown, from its start.
# B1: vh428 (SEQ ID NO:146) fused to SEQ ID NO:160, Example 5 (VHH)
# chain (part 1 of 2): QVQLQQSGGGSVQAGGSLRLSCTISGRTLSDFTMAWFRQRPGKEREFVAAISWSGAYTYYADSVKGRFTISRDNAKNTVYLQMNSLKPEDTAVYYCAAGPTGLLSRKTTPADYQYWGQGTQVTVSS
# chain (part 2 of 2): not shown
# B2: vh331 (SEQ ID NO:140) (VHH)
# VHH: B1 chain (part 1 of 2) with F32Y, A35G, Y59K, V93L, R106K, T108A, Q114D
# B3: vh118 (SEQ ID NO:80), Example 3 construct (VHH)
# VHH: B1 chain (part 1 of 2) with F32Y, A35G, Y59K, R106K, T108A, Q114D
# B4: vh281 (SEQ ID NO:134) (VHH)
# VHH: B1 chain (part 1 of 2) with F32Y, A35G, Y59K, S85T, R106K, T108A, Q114D
# B5: vh254 (SEQ ID NO:97) (VHH)
# VHH: B1 chain (part 1 of 2) with T23S, F32Y, A35G, Y59K, R106K, T108A, Q114D
# B6: Nb276 (SEQ ID NO:128) (VHH)
# VHH: B1 chain (part 1 of 2) with F32Y, A35G, Y59K, Y80L, R106K, T108A, Q114D
# B7: vh118 (SEQ ID NO:80) fused to SEQ ID NO:160, Example 5 (VHH)
# chain (part 1 of 2): B1 chain (part 1 of 2) with F32Y, A35G, Y59K, R106K, T108A, Q114D
# chain (part 2 of 2): not shown
# B8: vh341 (SEQ ID NO:103) (VHH)
# VHH: B1 chain (part 1 of 2) with F32Y, A35G, R40K, Y59K, R106K, T108A, Q114D
# B9: Nb274 (SEQ ID NO:125) (VHH)
# VHH: B1 chain (part 1 of 2) with F32Y, A35G, Y59K, N77E, R106K, T108A, Q114D
# B10: Nb329 (SEQ ID NO:127) (VHH)
# VHH: B1 chain (part 1 of 2) with F32Y, A35G, Y59K, N77D, R106K, T108A, Q114D
# B11: vh325 (SEQ ID NO:113) (VHH)
# VHH: B1 chain (part 1 of 2) with F32Y, A35G, R45I, Y59K, R106K, T108A, Q114D
# B12: vh250 (SEQ ID NO:92) (VHH)
# VHH: B1 chain (part 1 of 2) with A14S, F32Y, A35G, Y59K, R106K, T108A, Q114D
# B13: vh263 (SEQ ID NO:109) (VHH)
# VHH: B1 chain (part 1 of 2) with F32Y, A35G, E44A, Y59K, R106K, T108A, Q114D
# B14: vh279 (SEQ ID NO:131) (VHH)
# VHH: B1 chain (part 1 of 2) with F32Y, A35G, Y59K, Y80F, R106K, T108A, Q114D
# B15: vh269 (SEQ ID NO:120) (VHH)
# VHH: B1 chain (part 1 of 2) with F32Y, A35G, Y59K, A61T, R106K, T108A, Q114D
# B16: vh284 (SEQ ID NO:137) (VHH)
# VHH: B1 chain (part 1 of 2) with F32Y, A35G, Y59K, V93A, R106K, T108A, Q114D
# B17: vh280 (SEQ ID NO:133) (VHH)
# VHH: B1 chain (part 1 of 2) with F32Y, A35G, Y59K, S85N, R106K, T108A, Q114D
# B18: Nb277 (SEQ ID NO:129) (VHH)
# VHH: B1 chain (part 1 of 2) with F32Y, A35G, Y59K, Y80V, R106K, T108A, Q114D
# B19: vh282 (SEQ ID NO:135) (VHH)
# VHH: B1 chain (part 1 of 2) with F32Y, A35G, Y59K, S85Q, R106K, T108A, Q114D
# B20: vh330 (SEQ ID NO:132) (VHH)
# VHH: B1 chain (part 1 of 2) with F32Y, A35G, Y59K, Y80W, R106K, T108A, Q114D
# B21: vh260 (SEQ ID NO:106) (VHH)
# VHH: B1 chain (part 1 of 2) with F32Y, A35G, K43Q, Y59K, R106K, T108A, Q114D
# B22: vh258 (SEQ ID NO:102) (VHH)
# VHH: B1 chain (part 1 of 2) with F32Y, A35G, R40I, Y59K, R106K, T108A, Q114D
# B23: vh257 (SEQ ID NO:101) (VHH)
# VHH: B1 chain (part 1 of 2) with F32Y, A35G, R40T, Y59K, R106K, T108A, Q114D
# B24: vh248 (SEQ ID NO:90) (VHH)
# VHH: B1 chain (part 1 of 2) with Q5E, F32Y, A35G, Y59K, R106K, T108A, Q114D
# B25: vh286 (SEQ ID NO:139) (VHH)
# VHH: B1 chain (part 1 of 2) with F32Y, A35G, Y59K, V93I, R106K, T108A, Q114D
# B26: vh275 (SEQ ID NO:126) (VHH)
# VHH: B1 chain (part 1 of 2) with F32Y, A35G, Y59K, N77Q, R106K, T108A, Q114D
# B27: vh247 (SEQ ID NO:89) (VHH)
# VHH: B1 chain (part 1 of 2) with Q5V, F32Y, A35G, Y59K, R106K, T108A, Q114D
# B28: vh261 (SEQ ID NO:107) (VHH)
# VHH: B1 chain (part 1 of 2) with F32Y, A35G, K43R, Y59K, R106K, T108A, Q114D
# B29: vh327 (SEQ ID NO:118) (VHH)
# VHH: B1 chain (part 1 of 2) with F32Y, A35G, Y59K, A61N, R106K, T108A, Q114D
# B30: vh332 (SEQ ID NO:96) (VHH)
# VHH: B1 chain (part 1 of 2) with T23V, F32Y, A35G, Y59K, R106K, T108A, Q114D
# B31: vh249 (SEQ ID NO:91) (VHH)
# VHH: B1 chain (part 1 of 2) with Q6E, F32Y, A35G, Y59K, R106K, T108A, Q114D
# B32: vh271 (SEQ ID NO:122) (VHH)
# VHH: B1 chain (part 1 of 2) with F32Y, A35G, Y59K, A61V, R106K, T108A, Q114D
# B33: vh256 (SEQ ID NO:100) (VHH)
# VHH: B1 chain (part 1 of 2) with I24V, F32Y, A35G, Y59K, R106K, T108A, Q114D
# B34: vh344 (SEQ ID NO:98) (VHH)
# VHH: B1 chain (part 1 of 2) with T23A, F32Y, A35G, Y59K, V93I, R106K, T108A, Q114D
# B35: vh265 (SEQ ID NO:111) (VHH)
# VHH: B1 chain (part 1 of 2) with F32Y, A35G, E44G, Y59K, R106K, T108A, Q114D
# B36: vh328 (SEQ ID NO:119) (VHH)
# VHH: B1 chain (part 1 of 2) with F32Y, A35G, Y59K, A61Q, R106K, T108A, Q114D
# B37: vh255 (SEQ ID NO:99) (VHH)
# VHH: B1 chain (part 1 of 2) with I24S, F32Y, A35G, Y59K, R106K, T108A, Q114D
# B38: vh346 (SEQ ID NO:114) (VHH)
# VHH: B1 chain (part 1 of 2) with F32Y, A35G, F47L, Y59K, V93I, R106K, T108A, Q114D
# B39: vh278 (SEQ ID NO:130) (VHH)
# VHH: B1 chain (part 1 of 2) with F32Y, A35G, Y59K, Y80A, R106K, T108A, Q114D
# B40: vh264 (SEQ ID NO:110) (VHH)
# VHH: B1 chain (part 1 of 2) with F32Y, A35G, E44D, Y59K, R106K, T108A, Q114D
# B41: Nb273 (SEQ ID NO:124) (VHH)
# VHH: B1 chain (part 1 of 2) with F32Y, A35G, Y59K, N77S, R106K, T108A, Q114D
# B42: vh251 (SEQ ID NO:93) (VHH)
# VHH: B1 chain (part 1 of 2) with A14T, F32Y, A35G, Y59K, R106K, T108A, Q114D
# B43: vh262 (SEQ ID NO:108) (VHH)
# VHH: B1 chain (part 1 of 2) with F32Y, A35G, E44Q, Y59K, R106K, T108A, Q114D
# B44: vh252 (SEQ ID NO:94) (VHH)
# VHH: B1 chain (part 1 of 2) with R19K, F32Y, A35G, Y59K, R106K, T108A, Q114D
# B45: vh253 (SEQ ID NO:95) (VHH)
# VHH: B1 chain (part 1 of 2) with R19S, F32Y, A35G, Y59K, R106K, T108A, Q114D
# B46: vh270 (SEQ ID NO:121) (VHH)
# VHH: B1 chain (part 1 of 2) with F32Y, A35G, Y59K, A61S, R106K, T108A, Q114D
# B47: vh345 (SEQ ID NO:104) (VHH)
# VHH: B1 chain (part 1 of 2) with F32Y, A35G, R40A, Y59K, V93I, R106K, T108A, Q114D
# B48: vh259 (SEQ ID NO:105) (VHH)
# VHH: B1 chain (part 1 of 2) with F32Y, A35G, K43G, Y59K, R106K, T108A, Q114D
# B49: vh266 (SEQ ID NO:112) (VHH)
# VHH: B1 chain (part 1 of 2) with F32Y, A35G, R45L, Y59K, R106K, T108A, Q114D
# Columns and labels:
# AAV9 viral particles [1] = target: T1, AAV9 viral particles (adeno-associated virus 9); assay: SPR (Biacore 8K+), fusion protein amine-coupled to CM5, AAV9 2E12 vp/ml; response normalized to vh118
# AAV9 viral particles [2] = target: T1, AAV9 viral particles; assay: SPR (Biacore), polypeptide amine-coupled to CM5, AAV9 analyte; response normalized to SEQ ID NO:80
# AAV9 viral particles [3] = target: T1, AAV9 viral particles; assay: as above; remark: listed apart in the source
# AAV9 viral particles [4] = target: T1, AAV9 viral particles; assay: as above; remark: listed apart in the source
Binder,Normalized AAV9 binding capacity (%) (AAV9 viral particles [2]),Normalized AAV9 binding capacity (%) (AAV9 viral particles [3]),other results
B1,,,Normalized AAV9 binding capacity (%) (AAV9 viral particles [1]): 108%
B2,109%,,
B3,100%,100%,Normalized AAV9 binding capacity (%) (AAV9 viral particles [4]): 100%
B4,103%,,
B5,,,Normalized AAV9 binding capacity (%) (AAV9 viral particles [4]): 73%
B6,92%,,
B7,,,Normalized AAV9 binding capacity (%) (AAV9 viral particles [1]): 100%
B8,,83%,
B9,91%,,
B10,111%,,
B11,,97%,
B12,,,Normalized AAV9 binding capacity (%) (AAV9 viral particles [4]): 96%
B13,,108%,
B14,98%,,
B15,85%,,
B16,109%,,
B17,100%,,
B18,80%,,
B19,88%,,
B20,112%,,
B21,,77%,
B22,,87%,
B23,,69%,
B24,,,Normalized AAV9 binding capacity (%) (AAV9 viral particles [4]): 105%
B25,112%,,

Binder,Normalized AAV9 binding capacity (%) (AAV9 viral particles [2]),Normalized AAV9 binding capacity (%) (AAV9 viral particles [3]),other results
B26,94%,,
B27,,,Normalized AAV9 binding capacity (%) (AAV9 viral particles [4]): 106%
B28,,105%,
B29,109%,,
B30,,,Normalized AAV9 binding capacity (%) (AAV9 viral particles [4]): 98%
B31,,,Normalized AAV9 binding capacity (%) (AAV9 viral particles [4]): 86%
B32,105%,,
B33,,,Normalized AAV9 binding capacity (%) (AAV9 viral particles [4]): 102%
B34,100%,,Normalized AAV9 binding capacity (%) (AAV9 viral particles [4]): 100%
B35,,101%,
B36,110%,,
B37,,,Normalized AAV9 binding capacity (%) (AAV9 viral particles [4]): 103%
B38,100%,100%,
B39,99%,,
B40,,92%,
B41,82%,,
B42,,,Normalized AAV9 binding capacity (%) (AAV9 viral particles [4]): 99%
B43,,104%,
B44,,,Normalized AAV9 binding capacity (%) (AAV9 viral particles [4]): 92%
B45,,,Normalized AAV9 binding capacity (%) (AAV9 viral particles [4]): 86%
B46,103%,,
B47,101%,101%,
B48,,72%,
B49,,115%,
